Source: patent publication US20120034254A1

Experiments:
Test in all cases: SPR
CD4 = CD4 (UniProt P01730)
Full length Hxbc2 gp120 = target: Full length Hxbc2 gp120
WT Hxbc2 core = target: WT Hxbc2 core

Substance | Kd (CD4) | Kd (Full length Hxbc2 gp120) | Kd (WT Hxbc2 core)
Full length Hxbc2 gp120 | 6.29 nM | – | –
WT Hxbc2 core | 15.1 nM | – | –
b12 | – | 2.63 nM | 2.67 nM
